Laboratory results reported in patent US20230025280A1, “PH RESPONSIVE COMPOSITIONS, FORMULATIONS, AND METHODS OF IMAGING A TUMOR” (ONCONANO MEDICINE, INC, priority 2019, published 2023).
“And” between values parts separate entries of the source, which are not always exact repeats. Identical values can stand only once. “Also recorded” adds a separate entry of the source.

Assay: Phase 1 (1a/1b) pharmacokinetics: plasma concentrations after single IV dose (validated direct fluorescence reader assay), noncompartmental analysis
Assay type: in vivo, human
Details: for AUC0-24 hr / AUCall / AUClast / C10 m / Cmax / T1/2 / Tmax: 1.2 mg/kg single IV; for Plasma Conc: 1.20 mg/kg
Description: Phase 1 is a single-Principal Investigator, non-randomized, open-label, single-arm, cross-sectional study to evaluate the safety, PK profile, and imaging feasibility of Compound 1 in patients with solid cancers who require surgical excision. The main purpose of this study was to investigate the safety, PK, and feasibility of Compound 1 as an intra-operative optical imaging agent to detect tumors and metastatic lymph nodes in solid cancers. The study was intended to investigate the optimal dose range of Compound 1 for an adequate TBR and CNR of fluorescence obtained intraoperatively at 24 (±8) hours post dosing and with ex vivo specimens using ICG compatible cameras and imaging devices.
Phase 1 enrolled 30 patients with solid cancers (HNSCC, breast cancer, esophageal cancer, or colorectal cancer) who have a biopsy-confirmed diagnosis of respective tumor types and are scheduled to undergo surgical resection of the tumor. The study design included a standard 3+3 design for the dose-escalation portion (Phase 1a; N=18 maximum) followed by a dose-expansion portion (Phase 1b; N=15). All patients received a single I.V. dose of Compound 1, followed by routine surgery approximately 24 hours after infusion of Compound 1.
Phase 1a was a dose-finding study performed in 5 cohorts of 3 patients each. The dose levels evaluated were […], and 1.2 mg/kg, in this sequence. Inter-cohort dose escalation took place after the last patient in the previous cohort completed the Day 10 safety assessment. Safety, PK, and imaging feasibility were evaluated in both the Phase 1a and 1b portions of the study. Patient safety is assessed during the study and for up to 10 days post-dose.
Study design: Single Compound 1 IV dose was administered as a 1-5 minute IV infusion to patients in five cohorts (0.1, 0.3, 0.5, 0.8, and 1.2 mg/kg) with three patients per cohort in Phase 1a and 15 patients at a dose of 1.2 mg/kg in Phase 1b. Patient demographic information including tumor types is presented in Table 4 and 5 for Phase 1a and Table 5 for Phase 1b. Intertek Pharmaceutical Services (San Diego, Calif.) determined Compound 1 plasma concentrations using a validated direct fluorescence reader assay. Pacific BioDevelopment (Davis, Calif.) performed the PK analysis.
Sample collection: Blood samples were collected prior to infusion and at 10 minutes and 0.5, 1, 3, 8, 24, 48, 72, and 240 hours after infusion.
Analysis: Plasma concentration versus time profiles were generated for each patient. Pharmacokinetic parameters were estimated using Phoenix WinNonlin (version 8.0). According to SOP, concentrations reported as BQL were set to 0 except for the 0.5 h sample for subject #ON1102, which was set to LLOQ/2 ([…] value used in parameter calculations) and the 24 and 48 h samples.
If the coefficient of determination for the terminal slope estimation was less than 0.8, T1/2 was not reported (NR). AUC extrapolated to infinity is not reported for any data set because in all cases the % extrapolated AUC was greater than 20% and thus the AUCinf estimate would not be reliable. The concentration at 10 minutes, the first time point measured (C10m), was also reported for each patient.
The area under the plasma concentration versus time curves from dosing to the last time point with a measurable concentration (AUClast) was estimated by the linear trapezoid method. The last three or more time points were used to estimate the elimination rate constant (λz) which was used to estimate the terminal-phase half-life (T1/2) and AUC from zero to infinity (AUCINF) from the following equations: […]

Substance: PEO90-140-b-P(DBA60-150-r-ICG0-3-r-AMA0-3) [Compound 1]
- AUC0-24 hr (Phase 1a, mean): 495 µg·h/mL
- AUCall (Phase 1a, mean): 842 µg·h/mL
- AUClast (Phase 1a, mean): 682 µg·h/mL
- C10 m (Phase 1a, mean): 31.7 µg/mL
- Cmax (Phase 1a, mean): 31700 ng/mL
- T1/2 (Phase 1a, mean): 36.5 h
- Tmax (Phase 1a, mean): 0.170 h
- AUC0-24 hr (Phase 1a, median): 563 µg·h/mL
- AUCall (Phase 1a, median): 1020 µg·h/mL
- AUClast (Phase 1a, median): 891 µg·h/mL
- C10 m (Phase 1a, median): 33.0 µg/mL
- Cmax (Phase 1a, median): 33000 ng/mL
- T1/2 (Phase 1a, median): 32.5 h
- Tmax (Phase 1a, median): 0.170 h
- Plasma Conc (Phase 1a, 0.170 hr, individual subject): 28000 ng/mL and 34100 ng/mL and 33000 ng/mL
- Plasma Conc (Phase 1a, 0.170 hr, mean): 31700 ng/mL
- Plasma Conc (Phase 1a, 0.500 hr, individual subject): 23900 ng/mL and 30500 ng/mL and 31800 ng/mL
- Plasma Conc (Phase 1a, 0.500 hr, mean): 28700 ng/mL
- Plasma Conc (Phase 1a, 1.00 hr, individual subject): 23900 ng/mL and 32100 ng/mL and 25800 ng/mL
- Plasma Conc (Phase 1a, 1.00 hr, mean): 27300 ng/mL
- Plasma Conc (Phase 1a, 3.00 hr, individual subject): 24500 ng/mL and 28400 ng/mL and 27800 ng/mL
- Plasma Conc (Phase 1a, 3.00 hr, mean): 26900 ng/mL
- Plasma Conc (Phase 1a, 8.00 hr, individual subject): 20500 ng/mL and 24400 ng/mL and 28400 ng/mL
- Plasma Conc (Phase 1a, 8.00 hr, mean): 24400 ng/mL
- Plasma Conc (Phase 1a, 24.0 hr, individual subject): BQL (BQL (<10 μg/mL), set = 0 for PK analysis) and 18.3 μg/mL and 15.6 μg/mL
- Plasma Conc (Phase 1a, 24.0 hr, mean): 11300 ng/mL
- Plasma Conc (Phase 1a, 48.0 hr, individual subject): BQL (BQL (<10 μg/mL), set = 0 for PK analysis) and 15.6 μg/mL and 10.8 μg/mL
- Plasma Conc (Phase 1a, 48.0 hr, mean): 8800 ng/mL
- Plasma Conc (Phase 1a, 72.0 hr, individual subject): BQL (BQL (<10 μg/mL), set = 0 for PK analysis)
- Plasma Conc (Phase 1a, 72.0 hr, mean): 0 ng/mL
- Plasma Conc (Phase 1a, 240 hr, individual subject): BQL (BQL (<10 μg/mL), set = 0 for PK analysis)
- Plasma Conc (Phase 1a, 240 hr, mean): 0 ng/mL
- Exposure in relation to dose (Phase 1a, 0.1-1.2 mg/kg): dose-related; also recorded: increased proportionally with dose
- Mean AUC0-24hr (Phase 1b, 1.2 mg/kg): 638 µg·h/mL
- Mean terminal-phase half-life (Phase 1b, 1.2 mg/kg): 46.4 h
- AUC0-24 hr (Phase 1b, individual subject): 625 µg·h/mL and 606 µg·h/mL and 502 µg·h/mL and 787 µg·h/mL and 730 µg·h/mL and 585 µg·h/mL and 740 µg·h/mL and 630 µg·h/mL and 684 µg·h/mL and 626 µg·h/mL and 693 µg·h/mL and 562 µg·h/mL and 565 µg·h/mL and 520 µg·h/mL and 721 µg·h/mL
- AUCall (Phase 1b, individual subject): 2690 µg·h/mL and 2150 µg·h/mL and 2120 µg·h/mL and 1460 µg·h/mL and 2550 µg·h/mL and 1100 µg·h/mL and 2740 µg·h/mL and 1170 µg·h/mL and 939 µg·h/mL and 1090 µg·h/mL and 3190 µg·h/mL and 1120 µg·h/mL and 747 µg·h/mL and 3350 µg·h/mL
- AUClast (Phase 1b, individual subject): 1430 µg·h/mL and 1280 µg·h/mL and 1110 µg·h/mL and 1270 µg·h/mL and 1480 µg·h/mL and 961 µg·h/mL and 1580 µg·h/mL and 1020 µg·h/mL and 684 µg·h/mL and 971 µg·h/mL and 1740 µg·h/mL and 968 µg·h/mL and 957 µg·h/mL and 520 µg·h/mL and 1780 µg·h/mL
- C10 m (Phase 1b, individual subject): 30.3 µg/mL and 31.4 µg/mL and 25.5 µg/mL and 40.0 µg/mL and 47.6 µg/mL and 32.6 µg/mL and 31.3 µg/mL and 36.5 µg/mL and 32.1 µg/mL and 35.8 µg/mL and 33.0 µg/mL and 28.0 µg/mL and 28.5 µg/mL and 27.5 µg/mL and 38.6 µg/mL
- Cmax (Phase 1b, individual subject): 32400 ng/mL and 32600 ng/mL and 27600 ng/mL and 42200 ng/mL and 47600 ng/mL and 34300 ng/mL and 37700 ng/mL and 34100 ng/mL and 36400 ng/mL and 32000 ng/mL and 29900 ng/mL and 29200 ng/mL and 38600 ng/mL
- T1/2 (Phase 1b, individual subject): 43.3 h and 61.4 h and 34.4 h and 38.4 h and 33.6 h and 46.8 h and 34.5 h and 33.4 h and 27.7 h and 83.0 h and 45.5 h and 42.6 h and 77.9 h
- Tmax (Phase 1b, individual subject): 3.00 h and 1.00 h and 0.500 h and 0.170 h
